The target in the experiment is PBMC-flu supernatant. The experiment can be described thus: cell-based or functional assay.

B1: ACO-1 (antibody, V domains shown)
VH: QVQLQQPGAELVKPGASVKLSCKASGYTFTNYWMHWVKQRPGQGLEWIGEINPSHGRTIYNENFKSKATLTVDKSSITAFMQLSSLTSEDSAVYFCARGGLGPAWFAYWGQGTLVTVSA
VL: QIVLTQSPAIMSASPGEKVTLTCSAGSSVDSSYLYWYQQKPGSSPKLWIYSTSNLASGVPARFSGSGSGTSYSLTISSMEAEDAASYFCHQWSSYPFTFGSGTKLEIKR
notes: also called ACO-1 monoclonal antibody; hybridoma ATCC PTA-6557
As to B1, the neutralization of PBMC-flu, RG bioassay was over 50%.
